Experiments:
[1] = target: T1, Lrp5 (endogenous, in mouse kidney) (mouse, UniProt Q91VN0 31-1614); assay: Western blot for S-tag proteins in whole d5 post I/R kidney from mice treated with Dkk2-C2
T1 construct: whole, on cells; Endogenous receptor in whole d5 post I/R kidney; The complex was detected in kidney lysate by Western blot; also called Lipoprotein receptor like protein 5
Procedure: (§1) For detection of Dkk2-C2, western blots of 50μg of whole kidney protein lysate per lane were incubated with anti-S-tag antibodies (1:500, BD Biosciences) followed by secondary HRP conjugated antibodies. After detection and stripping blots were re-detected with anti-beta-actin (1:1000, Santa Cruz Biotechnology). The purified recombinant Dkk2C contained only one single band in SDS-PAGE.
(§2) This C2 recombinant form of Dkk2 was administered from d0 to WT mice that were uninjured or which had kidney injury. Kidneys were harvested on day 2 and day 7 after injury and assessed quantitatively for injury. […] After detection and stripping blots were re-detected with anti-beta-actin (1:1000, Santa Cruz Biotechnology). […] When systemic delivery of Dkk2 was delayed until after peak injury at d1, it was nevertheless detectable in the kidney (FIG. 5G) and it retained the capacity to improve kidney function as assessed by plasma creatinine levels (FIG. 5D). […] To understand whether Dkk2 was functioning to augment the canonical pathway, Wnt signalling in kidney cortex of d5 post I/R mice was assessed by detection of phosphorylated Lrp6 since canonical signalling requires phosphorylation of this co-receptor (Zeng et al., Nature 438(7069):873-877 (in eng) (2005)) (FIG. 5E). pLrp6 was not detected in healthy adult kidney cortex (FIG. 1G) but was robustly detected in kidney cortex following injury.

[2] = target: T2, Lrp6 (endogenous, in mouse kidney) (mouse, UniProt O88572 20-1613); assay: as above
T2 construct: whole, on cells; Endogenous receptor in whole d5 post I/R kidney or kidney cortex; also called Lipoprotein receptor like protein 6
Procedure: as §1, §2

T2 sequence (O88572 20-1613): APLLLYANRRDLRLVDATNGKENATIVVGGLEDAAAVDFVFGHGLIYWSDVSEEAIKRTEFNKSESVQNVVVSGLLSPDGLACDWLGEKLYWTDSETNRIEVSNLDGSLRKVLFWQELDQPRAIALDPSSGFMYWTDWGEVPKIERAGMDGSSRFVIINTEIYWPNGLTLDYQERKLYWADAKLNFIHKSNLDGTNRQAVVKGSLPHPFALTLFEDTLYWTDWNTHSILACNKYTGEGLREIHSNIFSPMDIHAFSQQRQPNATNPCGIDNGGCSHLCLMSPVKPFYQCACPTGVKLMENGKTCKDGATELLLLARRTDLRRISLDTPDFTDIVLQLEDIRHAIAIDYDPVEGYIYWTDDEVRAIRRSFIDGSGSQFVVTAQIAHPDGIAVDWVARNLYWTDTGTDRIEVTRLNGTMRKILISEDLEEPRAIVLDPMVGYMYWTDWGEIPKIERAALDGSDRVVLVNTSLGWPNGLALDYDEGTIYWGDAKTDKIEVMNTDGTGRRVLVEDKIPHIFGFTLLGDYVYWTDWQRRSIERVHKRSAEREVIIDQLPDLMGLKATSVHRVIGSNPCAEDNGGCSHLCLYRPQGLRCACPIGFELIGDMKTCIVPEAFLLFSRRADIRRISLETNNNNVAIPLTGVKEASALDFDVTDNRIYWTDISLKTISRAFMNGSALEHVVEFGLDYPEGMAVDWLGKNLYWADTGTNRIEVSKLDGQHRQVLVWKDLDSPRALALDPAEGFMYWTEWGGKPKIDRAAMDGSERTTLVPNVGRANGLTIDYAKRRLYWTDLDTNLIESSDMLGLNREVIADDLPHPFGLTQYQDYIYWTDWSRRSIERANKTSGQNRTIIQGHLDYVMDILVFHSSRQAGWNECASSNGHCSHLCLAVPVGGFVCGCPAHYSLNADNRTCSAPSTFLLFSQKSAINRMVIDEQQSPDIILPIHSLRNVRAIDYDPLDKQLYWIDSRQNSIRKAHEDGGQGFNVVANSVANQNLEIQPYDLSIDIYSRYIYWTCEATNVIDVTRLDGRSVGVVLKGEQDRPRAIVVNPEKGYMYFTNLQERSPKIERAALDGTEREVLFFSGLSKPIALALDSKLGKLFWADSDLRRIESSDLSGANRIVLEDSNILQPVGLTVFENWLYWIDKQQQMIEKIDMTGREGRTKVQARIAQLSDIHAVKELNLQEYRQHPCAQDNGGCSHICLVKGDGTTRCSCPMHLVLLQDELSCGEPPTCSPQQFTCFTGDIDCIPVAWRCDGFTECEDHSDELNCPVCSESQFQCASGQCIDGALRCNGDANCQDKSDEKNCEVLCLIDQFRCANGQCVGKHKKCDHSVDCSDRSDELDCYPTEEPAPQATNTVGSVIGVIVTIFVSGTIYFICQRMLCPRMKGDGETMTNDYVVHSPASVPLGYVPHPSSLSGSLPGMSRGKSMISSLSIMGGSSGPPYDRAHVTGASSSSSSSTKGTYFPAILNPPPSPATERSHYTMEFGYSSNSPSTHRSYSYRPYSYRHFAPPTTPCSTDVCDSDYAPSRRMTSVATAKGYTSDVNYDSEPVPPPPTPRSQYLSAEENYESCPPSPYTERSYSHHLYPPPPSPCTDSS
T1 sequence (Q91VN0 31-1614): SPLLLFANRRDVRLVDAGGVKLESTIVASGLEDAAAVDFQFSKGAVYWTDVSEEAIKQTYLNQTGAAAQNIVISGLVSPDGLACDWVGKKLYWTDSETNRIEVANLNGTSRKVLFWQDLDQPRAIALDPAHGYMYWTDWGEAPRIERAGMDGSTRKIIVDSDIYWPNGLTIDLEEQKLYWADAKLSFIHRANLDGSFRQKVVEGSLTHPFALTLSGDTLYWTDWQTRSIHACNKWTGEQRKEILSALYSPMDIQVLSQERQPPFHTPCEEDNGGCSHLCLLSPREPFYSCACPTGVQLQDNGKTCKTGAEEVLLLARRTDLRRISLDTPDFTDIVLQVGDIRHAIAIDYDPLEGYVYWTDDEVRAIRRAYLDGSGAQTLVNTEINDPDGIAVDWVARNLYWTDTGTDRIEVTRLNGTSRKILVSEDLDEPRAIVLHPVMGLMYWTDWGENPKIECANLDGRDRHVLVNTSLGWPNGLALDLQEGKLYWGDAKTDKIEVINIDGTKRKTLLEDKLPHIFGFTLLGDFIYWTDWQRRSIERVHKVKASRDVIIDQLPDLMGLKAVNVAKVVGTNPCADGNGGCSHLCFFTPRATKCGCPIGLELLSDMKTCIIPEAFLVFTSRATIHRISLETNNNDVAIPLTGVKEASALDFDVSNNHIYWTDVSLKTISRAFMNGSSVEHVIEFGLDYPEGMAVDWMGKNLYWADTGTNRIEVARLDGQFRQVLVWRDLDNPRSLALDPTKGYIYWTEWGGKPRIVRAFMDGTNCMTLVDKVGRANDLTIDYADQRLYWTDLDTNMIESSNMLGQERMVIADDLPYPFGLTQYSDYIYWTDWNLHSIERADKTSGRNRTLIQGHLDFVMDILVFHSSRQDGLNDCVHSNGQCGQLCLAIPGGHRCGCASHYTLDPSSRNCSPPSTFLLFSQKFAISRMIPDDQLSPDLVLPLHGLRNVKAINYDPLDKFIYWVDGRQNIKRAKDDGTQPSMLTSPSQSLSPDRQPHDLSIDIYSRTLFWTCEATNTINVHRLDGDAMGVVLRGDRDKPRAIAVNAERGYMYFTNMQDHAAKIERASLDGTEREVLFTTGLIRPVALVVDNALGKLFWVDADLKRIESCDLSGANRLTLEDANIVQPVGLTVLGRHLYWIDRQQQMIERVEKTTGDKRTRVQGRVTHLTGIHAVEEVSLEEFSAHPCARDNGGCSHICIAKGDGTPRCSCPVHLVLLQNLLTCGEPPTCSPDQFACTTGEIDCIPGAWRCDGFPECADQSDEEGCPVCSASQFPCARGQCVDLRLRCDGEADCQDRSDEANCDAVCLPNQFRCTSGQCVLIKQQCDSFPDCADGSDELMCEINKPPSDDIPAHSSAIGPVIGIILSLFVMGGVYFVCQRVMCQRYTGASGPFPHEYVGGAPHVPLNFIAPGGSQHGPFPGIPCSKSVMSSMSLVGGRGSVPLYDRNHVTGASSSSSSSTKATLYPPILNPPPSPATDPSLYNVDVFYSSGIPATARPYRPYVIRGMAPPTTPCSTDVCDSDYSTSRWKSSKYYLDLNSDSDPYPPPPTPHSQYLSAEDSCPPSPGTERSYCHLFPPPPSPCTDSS

binding result [1]: binds | binding result [2]: binds
B1: recombinant protein Dkk2C (amino acids Met172-Ile259 of mouse Dkk2) with N-terminal S tag and thrombin cleavage site (ligand)
chain: MPHIKGHEGDPCLRSSDCIDGFCCARHFWTKICKPVLHQGEVCTKQRKKGSHGLEIFQRCDCAKGLSCKVWKDATYSSKARLHVCQKI
notes: Expressed in E. coli; Detected in kidney lysate with anti-S-tag antibodies, so the S tag was still on the protein; also called Dkk2-C2; D2C2; not shown: N-terminal S tag; thrombin cleavage site between the S tag and Dkk2C

Source: patent publication US8703708 (CINCINNATI CHILDREN S HOSPITAL MEDICAL CENTER, dated 2014)
